pKd: −log10 of the molar value. Read-outs that look alike come from different tables or passages of the source.
Experiments:
[1] = biological target: Aedes aegypti membrane-bound alkaline phosphatase (Aa-mALP) (Aedes aegypti); assay: ELISA
[2] = biological target: Aedes aegypti membrane-bound alkaline phosphatase (Aa-mALP) (Aedes aegypti); assay: ELISA; remark: listed apart in the source

Substance: 65 kDa trypsin-activated Cry4Ba-R203Q toxin (natural protein)
- pKd [1]: 7.12
- pKd [2]: 7.12

Source: PMC10558600
